Measured values taken from paper PMC11237882 (2024).
Blank lines part the entries; values can stand above or below the binder they belong to.

What was measured:
Experiment in all cases: BLI (SUMO-peptide on tip, monomeric EVH1)
[1] = molecular target: T1, PRRC2B (Homo sapiens (Human), UniProt Q5JSZ5)
T1 chain: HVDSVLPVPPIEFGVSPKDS

[2] = molecular target: T2, FAT1 (Homo sapiens (Human), UniProt Q14517)
T2 chain: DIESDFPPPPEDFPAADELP

[3] = molecular target: T3, PCDH15 (Homo sapiens (Human), UniProt Q96QU1)
T3 chain: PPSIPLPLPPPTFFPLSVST

[4] = molecular target: T4, RARA (Homo sapiens (Human), UniProt P10276)
T4 chain: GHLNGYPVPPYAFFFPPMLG

[5] = molecular target: T5, APBB1IP_1 (Homo sapiens (Human), UniProt Q7Z5R6)
T5 chain: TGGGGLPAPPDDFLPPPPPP

[6] = molecular target: T6, DSCAM (Homo sapiens (Human), UniProt O60469)
T6 chain: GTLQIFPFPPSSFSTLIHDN

- Kd [1]: 100 µM
- Kd [2]: 98 µM
- Kd [3]: > 150 µM
- Kd [4]: 100 µM
- Kd [5]: > 150 µM
B1: HOMER1 (protein)
chain: MGEQPIFSTRAHVFQIDPNTKKNWVPTSKHAVTVSYFYDSTRNVYRIISLDGSKAIINSTITPNMTFTKTSQKFGQWADSRANTVYGLGFSSEHHLSKFAEKFQEFKEAARLA

- Kd [1]: > 150 µM
- Kd [6]: > 150 µM
- Kd [4]: > 150 µM
B2: ENAH (protein)
chain: MSEQSICQARAAVMVYDDANKKWVPAGGSTGFSRVHIYHHTGNNTFRVVGRKIQDHQVVINCAIPKGLKYNQATQTFHQWRDARQVYGLNFGSKEDANVFASAMMHALEVLNS
